Measured values taken from patent publication US20100292153A1 (US Dept. of Health and Human Services, published 2010).

Molecular target: T1, TRAF2 (untagged) (UniProt Q12933 1-501, limits assumed)
T1 construct: Negative control
T1 sequence (looked up): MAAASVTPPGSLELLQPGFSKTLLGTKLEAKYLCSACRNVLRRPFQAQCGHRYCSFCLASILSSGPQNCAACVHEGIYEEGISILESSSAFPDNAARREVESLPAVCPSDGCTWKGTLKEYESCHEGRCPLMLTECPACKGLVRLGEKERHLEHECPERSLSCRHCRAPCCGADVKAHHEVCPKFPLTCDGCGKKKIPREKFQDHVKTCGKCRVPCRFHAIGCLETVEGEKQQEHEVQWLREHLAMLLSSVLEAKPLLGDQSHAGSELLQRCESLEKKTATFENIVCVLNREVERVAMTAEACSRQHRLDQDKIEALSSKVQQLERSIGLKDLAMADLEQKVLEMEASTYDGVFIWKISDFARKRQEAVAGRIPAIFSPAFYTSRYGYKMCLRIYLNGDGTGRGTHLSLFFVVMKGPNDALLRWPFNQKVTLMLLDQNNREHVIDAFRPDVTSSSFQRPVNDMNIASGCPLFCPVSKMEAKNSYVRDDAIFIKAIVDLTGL
Assay: co-immunoprecipitation from transfected HEK293 cells (anti-FLAG beads, anti-TRAF2 immunoblot)
Method: Whole cell lysates were prepared 48 hrs after the transfection and were incubated with anti-FLAG conjugated beads (Sigma) overnight.

binding result: no binding
B1: FLAG-tagged human IRF4 (other, UniProt Q15306 1-451, looked up)
chain: MNLEGGGRGGEFGMSAVSCGNGKLRQWLIDQIDSGKYPGLVWENEEKSIFRIPWKHAGKQDYNREEDAALFKAWALFKGKFREGIDKPDPPTWKTRLRCALNKSNDFEELVERSQLDISDPYKVYRIVPEGAKKGAKQLTLEDPQMSMSHPYTMTTPYPSLPAQQVHNYMMPPLDRSWRDYVPDQPHPEIPYQCPMTFGPRGHHWQGPACENGCQVTGTFYACAPPESQAPGVPTEPSIRSAEALAFSDCRLHICLYYREILVKELTTSSPEGCRISHGHTYDASNLDQVLFPYPEDNGQRKNIEKLLSHLERGVVLWMAPDGLYAKRLCQSRIYWDGPLALCNDRPNKLERDQTCKLFDTQQFLSELQAFAHHGRSLPRFQVTLCFGEEFPDPQRQRKLITAHVEPLLARQLYYFAQQNSGHFLRGYDLPEHISNPEDYHRSIRHSSIQE
notes: Expressed by transfection in HEK293 cells; pulled down from whole cell lysates with anti-FLAG beads; it is entered under this molecule; also called IFN-regulatory factor 4; FLAG-tagged IRF4; not shown: FLAG tag
